Experimental data published in the supplement of paper PMC9170038.

Tested on: MS2 coat protein
Experiment: apparent KD of MS2 coat protein; designed switch direction (-1 OFF switch, 1 ON switch): -1; higher = weaker reporter binding
How it was run: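 Each step of the titration lasted 0.8–1.5 h at the lowest concentration and 10–20 min at the highest. The protein, SNAP-549-labelled MS2 coat protein, went from 0.7 or 1.5 nM doubling to 3 µM over RNA switches transcribed on Illumina chips by stalled E. coli RNA polymerase. Normalised cluster fluorescence was curve-fitted, and the per-design median over clusters is given as apparent KD.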

[1] = Eterna round: R95, input ligand: microRNA oligo, concentration not stated
[2] = input ligand: microRNA oligo, concentration not stated
[3] = Eterna round: R95, input ligand: FMN 200 uM
[4] = Eterna round: R95, input ligand: none

Sequence | apparent KD of MS2 coat protein (input ligand: FMN 200 uM) [nM] | apparent KD of MS2 coat protein (input ligand: none) [nM] | apparent KD of MS2 coat protein [2] [nM] | other results
GGAAGGAGAGGAUAUGAGGGAGAGAACAUGAGGAUCACCCAUGUGAGACCUCAGGAUCGAUCAGAAGGCUCAGUCC [AK-MS2ROC-r4-exclusion5-12] (Eterna round: R97, puzzle: Exclusion 5) | 692 | 232 |  | 
UUCAUGUGAGGAUAUAGUACUUCUUCUAUUAUUAUUGAGUACUAGAAGGCACAUGAGGAUCACCCAUGUAGUAC [Ex4 - 3 - 43] (puzzle: Exclusion 4) |  |  |  | apparent KD of MS2 coat protein [1]: 39.1 nM
UUCAUGUUAGGAUAUUCCGCUGCAGAGAAAGAGUGCAGAAUGAAGAAGGGACAUGAGGAUCACCCAUGUUCCAA [EX4 A.8] (Eterna round: R97, puzzle: Exclusion 4) | 19.5 | 15.5 |  | 
AUGCGUGGCUAGGAUAUUGAGGAAUUUAGUCAGCGAGAAGGAGCCACAUGAGGAUCACCCAUGUGGUGAAGCUC [jl-ex6-4.59 ViennaUCT mod] (Eterna round: R97, puzzle: Exclusion 6) | 70.5 | 19.1 |  | 
CAGUACUGAGGAUAUACAUGAGGAUCACCCAUGUGAACCAGCUAGGAUACUAGCAAAAGUAGAAGGCAGUACUG [Mat - Exclusion 3 - Eli Mod - D17] (Eterna round: R97, puzzle: Exclusion 3) | 67 | 71.4 |  | 
GUCCUCAUGACAUGAGGAUCACCCAUGUAUUAUUUGUUAACUGAGGAUAUACUCUUAAUGUUUAUGUAGAAGGCAGAUUCGGUC [JR_ExcNG3_Sub019] (Eterna round: R96, puzzle: Exclusion NG 3) | 51.6 | 40.7 | 37.8 | 
GGUGGACAUGAGGAUCACCCAUGUGAGGAUAUCGGCCGGUUCGCGGUGGCUGGCGUCUCGAGAAGGCGCAUAGU [Exclusion 1 V71] (puzzle: Exclusion 1) |  |  |  | apparent KD of MS2 coat protein [1]: 28.7 nM
UAAUAACAUGUAGGAUAUGCGUGGCGAAGCUAUGCAGAAGGACAUGAGGAUCACCCAUGUUAAAGCGUCUGCGUACAGAUGCGA [Mat - Exclusion NG 1 - Mod of JL - D97] (Eterna round: R96, puzzle: Exclusion NG 1) | 188 | 31.1 | 30.1 | 
AGAAAGCAAGGAUAUACAAGGAAACGACGGAAAGUAGAGAGACAUGAGGAUCACCCAUGUAGAAGGUGCGAGAG [JR_Exclu2_Sub033] (puzzle: Exclusion 2) |  |  |  | apparent KD of MS2 coat protein [3]: 32.1 nM; apparent KD of MS2 coat protein [1]: 24.5 nM; apparent KD of MS2 coat protein [4]: 29.1 nM
UUAUUAUAUGUAGGAUAUGCAUAUUAUUAUUAUGCAGAAGGACAUGAGGAUCACCCAUGUAUAUUAUUGUUAUAUAUUAUAUAU [Title] (Eterna round: R96, puzzle: Exclusion NG 1) |  |  | 21 | 
UAUUUAGCAAGCAGAUCCCACAUGAGGAUCACCCAUGUUCUCUGAAAGUACAGAAUUACUGUACAUGCUCGUCUUAU [Winner reversed engineered 33] (Eterna round: R97, puzzle: Sensor, turn-off variant 1) | 108 | 130 |  | 
UGAGCUUGAGGAUAUACAAGCUUGAGCUGAAAAGUUCGAGUACAUGAGGAUCACCCAUGUAGAAGGCGAGUUCG [-26.7, -25.2 kcal, A 31% 1bis and 1] (Eterna round: R97, puzzle: Exclusion 2) | 39.7 | 26 |  | 
AAGAAGUGAGGAUAUGGCCGGGUCCCUGGGUUUGGACCCGGCCAGAAGGCACAUGAGGAUCACCCAUGUAAGAA [Excls4-X] (puzzle: Exclusion 4) |  |  |  | apparent KD of MS2 coat protein [1]: 21.1 nM
UGAUCUAGCGGAGGAUAUACAUGAGGAUCACCCAUGUAGUGGUGACGUGCGUACAUGUCACCUGUGUAGAAGGCCGCUAGAUCU [JL ENG2 3.58] (Eterna round: R96, puzzle: Exclusion NG 2) | 20.1 | 14.8 | 9.65 | 
CGUCCACUUGAGGAUCACCCAAGUUAGGAUAUCUCCCGGCUCGCAAAUGCAGUCGGUCAGAGAAGGAACCAGGG [Qualaon] (Eterna round: R97, puzzle: Exclusion 1) | 59.6 | 26.7 |  | 
ACAUGGGAGCGAGGAUAUAGCCCAUGUGAAGAACUAGAAGGCGCAGACAUGAGGAUCACCCAUGUGUUCAUGAGGAGGUGGACA (Eterna round: R96, puzzle: Exclusion NG 1) | 72.7 | 69.4 | 42.4 | 

Sequence | apparent KD of MS2 coat protein (input ligand: FMN 200 uM) [nM] | apparent KD of MS2 coat protein (input ligand: none) [nM] | apparent KD of MS2 coat protein [2] [nM] | other results
AAAAACAGAGGAUAUGCACGCCGACCCGGGCGGGAAGUCGGACAUGAGGAUCACCCAUGUAGAAGGCUGAAAAA [Exclss2-VI] (puzzle: Exclusion 2) |  |  |  | apparent KD of MS2 coat protein [3]: 13.3 nM; apparent KD of MS2 coat protein [1]: 10.5 nM; apparent KD of MS2 coat protein [4]: 11.5 nM
AUGGUUCGAUUAGGAUAUUAUAGAUUGAAUAGUAUGAUUUACAUGAGGAUCACCCAUGUUACAUAUAAGAAGGAAUCGAAUCAU [JR_ExcNG2_Sub087] (Eterna round: R96, puzzle: Exclusion NG 2) |  |  | 11.5 | 
CAGUACUGAGGAUAUACAUGAGGAUCACCCAUGUGUUCCGGCUAGGAUACUAGCAAAGGUAGAAGGCAGUACUG [Mat - Exclusion 3 - Eli Mod - D22] (Eterna round: R97, puzzle: Exclusion 3) | 458 | 35.4 |  | 
ACAUGAGGAUCACCCAUGUAAUCAUGAUGGCUGAUGUAGAGUCAGGAUAUGUGUGGCUUUCUAUCACAGAAGGGACAAGACUGG [Deportation 36 - Jieux - Exclusion NG 3] (Eterna round: R96, puzzle: Exclusion NG 3) | 42.9 | 34.9 | 26.2 | 
CGUGUACGAGGAUAUAGAUUAGAUGACAUGAGGAUCACCCAUGUGAUCAAUCUAUUUAGUUUAGAAGGUGUACAUG [JR_Ex5_Sub051] (Eterna round: R97, puzzle: Exclusion 5) | 16.1 | 12.5 |  | 
GAUCCUUCUGUUAGGAUAUGCAACGGGCUUCCGCAGCAGAAGGAACAUGAGGAUCACCCAUGUCAAAUAAAAUC [JL-BMX4-4.36 ViennaUCT mod] (Eterna round: R97, puzzle: Brourd's mod of Exclusion 4) | 54.1 | 18.7 |  | 
GCCUCACAUGAGGAUCACCCAUGUCAGGAUAUCUAAGGCGAAGUGCAAGCACCUCGUGAGAGAAGGGACGUCAA [Dienononen] (puzzle: Exclusion 1) |  |  |  | apparent KD of MS2 coat protein [1]: 20.9 nM
AGCUGUGGCCGAGGAUAUCUAUCUCAAAUAACCGAAAUAUAAUCGGACAUGAGGAUCACCCAUGUAGAGAAGGCGGUCUCAGCA [Eli eng2 - 089] (Eterna round: R96, puzzle: Exclusion NG 2) |  |  | 11.4 | 
GACCUUCCUGUAAGGAUAUCCAUGUAUCAAAGCAUGGAGAAGGUACAUGAGGAUCACCCAUGUCACCCGCGUUA (Eterna round: R97, puzzle: Brourd's mod of Exclusion 4) | 17.7 | 11.7 |  | 
AUAAUUUAAGGAUAUACGUGGCGAGCCAGAUAGCUGGGUCUACAUGAGGAUCACCCAUGUAGAAGGUAAGGAUU [Eternabot (L1) Solution 23] (Eterna round: R97, puzzle: Exclusion 2) | 17.8 | 18.6 |  | 
AGCCACAGAGGAUAUACAUACAUCCAGUAGCGUAUAUCGCUACAUGAGGAUCACCCAUGUAGAAGGCUGUGGCA [Omei Ex2 BD B23] (Eterna round: R97, puzzle: Exclusion 2) | 86.7 | 18.4 |  | 
UACAUGAGGAUCACCCAUGUUUUGUCGUGUAUGGUAUUUAUCUAGGAUAUCAAUUGAUUUAUUCAUGAGAAGGAGAAUAUUAAU [JMF's solution 64] (Eterna round: R96, puzzle: Exclusion NG 3) | 34.1 | 39.8 | 31.4 | 
GGUCAUCAAGUCAGGAUAUCGUCUAAUCAAUCAGGCGAGAAGGGACAUGAGGAUCACCCAUGUCGACUCAUCAG [Ex4 #6] (Eterna round: R97, puzzle: Brourd's mod of Exclusion 4) | 130 | 33.5 |  | 
GCAGCAAAUUCCAUUAAAACCACAUGAGGAUCACCCAUGUCUCAGGAUAUGGUCUGGAUUACAGGCCAGAAGGGAGAAAGCUGC [Eli exng3 - 055] (Eterna round: R96, puzzle: Exclusion NG 3) | 10.1 | 16.3 | 11.9 | 
UGGUAACAUGAGGAUCACCCAUGUCAGGAUAUCAGUAAGAAUAGAGGAGAGUAGAAGAUGAGAAGGGACUAUAU [Excluse me! 8 - Jieux - Exclusion 1] (puzzle: Exclusion 1) |  |  |  | apparent KD of MS2 coat protein [3]: 20.5 nM; apparent KD of MS2 coat protein [1]: 33.4 nM; apparent KD of MS2 coat protein [4]: 30.8 nM
